T1: TNFR1 (Homo sapiens, UniProt P19438)
T1 chain: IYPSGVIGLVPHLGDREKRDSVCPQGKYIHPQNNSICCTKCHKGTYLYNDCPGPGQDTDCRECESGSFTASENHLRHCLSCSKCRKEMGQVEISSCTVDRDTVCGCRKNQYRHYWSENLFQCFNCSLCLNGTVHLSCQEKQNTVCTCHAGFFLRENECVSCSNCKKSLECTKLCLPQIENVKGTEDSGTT


Biological target: T1, TNFR1
Test: yeast display SC50

Row | Binder | apparent Kd (screen)
1 | T2G (designed binder) MGLQELLREEALRRAEAEAFRYALELLAEKFPEQKEYLLDLAEEIESQIRSLSGVDVEDVRKFLDKEWAWVKELLAEHPAELAEVEAARAARLAELRAEVEAKVAA | 1160 pM
2 | E5Y (designed binder) MTLQYLLREEALRRAEAEAFRYALELLAEKFPEQKEYLLDLAEEIESQIRSLSGVDVEDVRKFLDKEWAWVKELLAEHPAELAEVEAARAARLAELRAEVEAKVAA | 718 pM
3 | A15I (designed binder) MTLQELLREEALRRIEAEAFRYALELLAEKFPEQKEYLLDLAEEIESQIRSLSGVDVEDVRKFLDKEWAWVKELLAEHPAELAEVEAARAARLAELRAEVEAKVAA | 593 pM
4 | K35Y (designed binder) MTLQELLREEALRRAEAEAFRYALELLAEKFPEQYEYLLDLAEEIESQIRSLSGVDVEDVRKFLDKEWAWVKELLAEHPAELAEVEAARAARLAELRAEVEAKVAA | 446 pM
5 | F20H (designed binder) MTLQELLREEALRRAEAEAHRYALELLAEKFPEQKEYLLDLAEEIESQIRSLSGVDVEDVRKFLDKEWAWVKELLAEHPAELAEVEAARAARLAELRAEVEAKVAA | 490 pM
6 | K30A (designed binder) MTLQELLREEALRRAEAEAFRYALELLAEAFPEQKEYLLDLAEEIESQIRSLSGVDVEDVRKFLDKEWAWVKELLAEHPAELAEVEAARAARLAELRAEVEAKVAA | 1050 pM
7 | L41E (designed binder) MTLQELLREEALRRAEAEAFRYALELLAEKFPEQKEYLLDEAEEIESQIRSLSGVDVEDVRKFLDKEWAWVKELLAEHPAELAEVEAARAARLAELRAEVEAKVAA | 2250 pM
8 | E43F (designed binder) MTLQELLREEALRRAEAEAFRYALELLAEKFPEQKEYLLDLAFEIESQIRSLSGVDVEDVRKFLDKEWAWVKELLAEHPAELAEVEAARAARLAELRAEVEAKVAA | 653 pM
9 | L38A (designed binder) MTLQELLREEALRRAEAEAFRYALELLAEKFPEQKEYALDLAEEIESQIRSLSGVDVEDVRKFLDKEWAWVKELLAEHPAELAEVEAARAARLAELRAEVEAKVAA | 12500 pM
10 | L12S (designed binder) MTLQELLREEASRRAEAEAFRYALELLAEKFPEQKEYLLDLAEEIESQIRSLSGVDVEDVRKFLDKEWAWVKELLAEHPAELAEVEAARAARLAELRAEVEAKVAA | 1160 pM
11 | A42Y (designed binder) MTLQELLREEALRRAEAEAFRYALELLAEKFPEQKEYLLDLYEEIESQIRSLSGVDVEDVRKFLDKEWAWVKELLAEHPAELAEVEAARAARLAELRAEVEAKVAA | 11400 pM
12 | A15W (designed binder) MTLQELLREEALRRWEAEAFRYALELLAEKFPEQKEYLLDLAEEIESQIRSLSGVDVEDVRKFLDKEWAWVKELLAEHPAELAEVEAARAARLAELRAEVEAKVAA | 593 pM
13 | E36Y (designed binder) MTLQELLREEALRRAEAEAFRYALELLAEKFPEQKYYLLDLAEEIESQIRSLSGVDVEDVRKFLDKEWAWVKELLAEHPAELAEVEAARAARLAELRAEVEAKVAA | 539 pM
14 | L7F (designed binder) MTLQELFREEALRRAEAEAFRYALELLAEKFPEQKEYLLDLAEEIESQIRSLSGVDVEDVRKFLDKEWAWVKELLAEHPAELAEVEAARAARLAELRAEVEAKVAA | 7070 pM
15 | L7D (designed binder) MTLQELDREEALRRAEAEAFRYALELLAEKFPEQKEYLLDLAEEIESQIRSLSGVDVEDVRKFLDKEWAWVKELLAEHPAELAEVEAARAARLAELRAEVEAKVAA | 790 pM

Second part, the binder after the results:

Row | apparent Kd (screen) | Binder
16 | 1540 pM | L82S (designed binder) MTLQELLREEALRRAEAEAFRYALELLAEKFPEQKEYLLDLAEEIESQIRSLSGVDVEDVRKFLDKEWAWVKELLAEHPAESAEVEAARAARLAELRAEVEAKVAA
17 | 2730 pM | L74I (designed binder) MTLQELLREEALRRAEAEAFRYALELLAEKFPEQKEYLLDLAEEIESQIRSLSGVDVEDVRKFLDKEWAWVKEILAEHPAELAEVEAARAARLAELRAEVEAKVAA
18 | 718 pM | L96M (designed binder) MTLQELLREEALRRAEAEAFRYALELLAEKFPEQKEYLLDLAEEIESQIRSLSGVDVEDVRKFLDKEWAWVKELLAEHPAELAEVEAARAARLAEMRAEVEAKVAA
19 | 24400 pM | L52E (designed binder) MTLQELLREEALRRAEAEAFRYALELLAEKFPEQKEYLLDLAEEIESQIRSESGVDVEDVRKFLDKEWAWVKELLAEHPAELAEVEAARAARLAELRAEVEAKVAA
20 | 869 pM | E84N (designed binder) MTLQELLREEALRRAEAEAFRYALELLAEKFPEQKEYLLDLAEEIESQIRSLSGVDVEDVRKFLDKEWAWVKELLAEHPAELANVEAARAARLAELRAEVEAKVAA
21 | 593 pM | L75V (designed binder) MTLQELLREEALRRAEAEAFRYALELLAEKFPEQKEYLLDLAEEIESQIRSLSGVDVEDVRKFLDKEWAWVKELVAEHPAELAEVEAARAARLAELRAEVEAKVAA
22 | 2050 pM | A88P (designed binder) MTLQELLREEALRRAEAEAFRYALELLAEKFPEQKEYLLDLAEEIESQIRSLSGVDVEDVRKFLDKEWAWVKELLAEHPAELAEVEAPRAARLAELRAEVEAKVAA
23 | 718 pM | E99N (designed binder) MTLQELLREEALRRAEAEAFRYALELLAEKFPEQKEYLLDLAEEIESQIRSLSGVDVEDVRKFLDKEWAWVKELLAEHPAELAEVEAARAARLAELRANVEAKVAA
24 | 1540 pM | I45D (designed binder) MTLQELLREEALRRAEAEAFRYALELLAEKFPEQKEYLLDLAEEDESQIRSLSGVDVEDVRKFLDKEWAWVKELLAEHPAELAEVEAARAARLAELRAEVEAKVAA
25 | 653 pM | E58C (designed binder) MTLQELLREEALRRAEAEAFRYALELLAEKFPEQKEYLLDLAEEIESQIRSLSGVDVCDVRKFLDKEWAWVKELLAEHPAELAEVEAARAARLAELRAEVEAKVAA
26 | 2730 pM | I49A (designed binder) MTLQELLREEALRRAEAEAFRYALELLAEKFPEQKEYLLDLAEEIESQARSLSGVDVEDVRKFLDKEWAWVKELLAEHPAELAEVEAARAARLAELRAEVEAKVAA
27 | 539 pM | E81T (designed binder) MTLQELLREEALRRAEAEAFRYALELLAEKFPEQKEYLLDLAEEIESQIRSLSGVDVEDVRKFLDKEWAWVKELLAEHPATLAEVEAARAARLAELRAEVEAKVAA
28 | 2480 pM | F63P (designed binder) MTLQELLREEALRRAEAEAFRYALELLAEKFPEQKEYLLDLAEEIESQIRSLSGVDVEDVRKPLDKEWAWVKELLAEHPAELAEVEAARAARLAELRAEVEAKVAA
29 | 9410 pM | E44T (designed binder) MTLQELLREEALRRAEAEAFRYALELLAEKFPEQKEYLLDLAETIESQIRSLSGVDVEDVRKFLDKEWAWVKELLAEHPAELAEVEAARAARLAELRAEVEAKVAA
30 | 539 pM | A88K (designed binder) MTLQELLREEALRRAEAEAFRYALELLAEKFPEQKEYLLDLAEEIESQIRSLSGVDVEDVRKFLDKEWAWVKELLAEHPAELAEVEAKRAARLAELRAEVEAKVAA
31 | 5310 pM | L64R (designed binder) MTLQELLREEALRRAEAEAFRYALELLAEKFPEQKEYLLDLAEEIESQIRSLSGVDVEDVRKFRDKEWAWVKELLAEHPAELAEVEAARAARLAELRAEVEAKVAA
32 | 490 pM | K103N (designed binder) MTLQELLREEALRRAEAEAFRYALELLAEKFPEQKEYLLDLAEEIESQIRSLSGVDVEDVRKFLDKEWAWVKELLAEHPAELAEVEAARAARLAELRAEVEANVAA
33 | 869 pM | F63G (designed binder) MTLQELLREEALRRAEAEAFRYALELLAEKFPEQKEYLLDLAEEIESQIRSLSGVDVEDVRKGLDKEWAWVKELLAEHPAELAEVEAARAARLAELRAEVEAKVAA
34 | 539 pM | E81K (designed binder) MTLQELLREEALRRAEAEAFRYALELLAEKFPEQKEYLLDLAEEIESQIRSLSGVDVEDVRKFLDKEWAWVKELLAEHPAKLAEVEAARAARLAELRAEVEAKVAA
35 | 539 pM | E58Y (designed binder) MTLQELLREEALRRAEAEAFRYALELLAEKFPEQKEYLLDLAEEIESQIRSLSGVDVYDVRKFLDKEWAWVKELLAEHPAELAEVEAARAARLAELRAEVEAKVAA

— PMC12416549 (2024)
